Source: the supplement of paper PMC11246515
± gives the standard deviation of the averaged measurements.

Test: total protein half-life in vivo (active degradation + dilution); higher = more stable protein
[1] = E. coli NCM3722 delta-lon, growth: N-lim chemostat, doubling time 6 h
[2] = E. coli NCM3722 delta-smpB, growth: N-lim chemostat, doubling time 6 h
[3] = wild type E. coli NCM3722, growth: C-lim chemostat, doubling time 6 h
[4] = wild type E. coli NCM3722, growth: C-lim chemostat, doubling time 12 h
[5] = wild type E. coli NCM3722, growth: P-lim chemostat, doubling time 6 h
[6] = wild type E. coli NCM3722, growth: P-lim chemostat, doubling time 12 h
[7] = E. coli NCM3722 delta-clpP delta-lon delta-hslV, growth: N-lim chemostat, doubling time 6 h
[8] = E. coli NCM3722 delta-clpP, growth: N-lim chemostat, doubling time 6 h
[9] = wild type E. coli NCM3722, growth: C-lim chemostat, doubling time 3 h
[10] = E. coli NCM3722 delta-hslV, growth: N-lim chemostat, doubling time 6 h
[11] = wild type E. coli NCM3722, growth: N-lim chemostat, doubling time 6 h
[12] = wild type E. coli NCM3722, growth: N-lim chemostat, doubling time 12 h

Sequence	total protein half-life in vivo [1] [h]	total protein half-life in vivo [2] [h]	total protein half-life in vivo [3] [h]	total protein half-life in vivo [4] [h]	total protein half-life in vivo [5] [h]	total protein half-life in vivo [6] [h]	total protein half-life in vivo [7] [h]	total protein half-life in vivo [8] [h]	total protein half-life in vivo [9] [h]	total protein half-life in vivo [10] [h]	total protein half-life in vivo [11] [h]	total protein half-life in vivo [12] [h]
MMPEIGNGLLCLALGIALLLSVYPLWGVARGDARMMASSRLFAWLLFMSVAGAFLVLVNAFVVNDFTVTYVASNSNTQLPVWYRVAATWGAHEGSLLLWVLLMSGWTFAVAIFSQRIPLDIVARVLAIMGMVSVGFLLFILFTSNPFSRTLPNFPIEGRDLNPLLQDPGLIFHPPLLYMGYVGFSVAFAFAIASLLSGRLDSTYARFTRPWTLAAWIFLTLGIVLGSAWAYYELGWGGWWFWDPVENASFMPWLVGTALMHSLAVTEQRASFKAWTLLLAISAFSLCLLGTFLVRSGVLVSVHAFASDPARGMFILAFMVLVIGGSLLLFAARGHKVRSRVNNALWSRESLLLANNVLLVAAMLVVLLGTLLPLVHKQLGLGSISIGEPFFNTMFTWLMVPFALLLGVGPLVRWGRDRPRKIRNLLIIAFISTLVLSLLLPWLFESKVVAMTVLGLAMACWIAVLAIAEAALRISRGTKTTFSYWGMVAAHLGLAVTIVGIAFSQNYSVERDVRMKSGDSVDIHEYRFTFRDVKEVTGPNWRGGVATIGVTRDGKPETVLYAEKRYYNTAGSMMTEAAIDGGITRDLYAALGEELENGAWAVRLYYKPFVRWIWAGGLMMALGGLLCLFDPRYRKRVSPQKTAPEAV	6.56	4.59	> 8	> 16	6.24	9.96	–	–	–	–	–	–
MLDKLRSRIVHLGPSLLSVPVKLTPFALKRQVLEQVLSWQFRQALDDGELEFLEGRWLSIHVRDIDLQWFTSVVNGKLVVSQNAQADVSFSADASDLLMIAARKQDPDTLFFQRRLVIEGDTELGLYVKNLMDAIELEQMPKALRMMLLQLADFVEAGMKTAPETKQTSVGEPC	–	0.825 ± 0.014	–	–	0.825	–	3.71 ± 1.3	2.5	0.352 ± 0.048	–	–	–
MEKAKQVTWRLLAAGVCLLTVSSVARADSLDEQRSRYAQIKQAWDNRQMDVVEQMMPGLKDYPLYPYLEYRQITDDLMNQPAVTVTNFVRANPTLPPARTLQSRFVNELARREDWRGLLAFSPEKPGTTEAQCNYYYAKWNTGQSEEAWQGAKELWLTGKSQPNACDKLFSVWRASGKQDPLAYLERIRLAMKAGNTGLVTVLAGQMPADYQTIASAIISLANNPNTVLTFARTTGATDFTRQMAAVAFASVARQDAENARLMIPSLAQAQQLNEDQIQELRDIVAWRLMGNDVTDEQAKWRDDAIMRSQSTSLIERRVRMALGTGDRRGLNTWLARLPMEAKEKDEWRYWQADLLLERGREAEAKEILHQLMQQRGFYPMVAAQRIGEEYELKIDKAPQNVDSALTQGPEMARVRELMYWNLDNTARSEWANLVKSKSKTEQAQLARYAFNNQWWDLSVQATIAGKLWDHLEERFPLAYNDLFKRYTSGKEIPQSYAMAIARQESAWNPKVKSPVGASGLMQIMPGTATHTVKMFSIPGYSSPGQLLDPETNINIGTSYLQYVYQQFGNNRIFSSAAYNAGPGRVRTWLGNSAGRIDAVAFVESIPFSETRGYVKNVLAYDAYYRYFMGDKPTLMSATEWGRRY [P0AGC3]	6.53 ± 0.35	6.054 ± 0.043	6.34 ± 0.25	12 ± 2.2	6.07 ± 0.19	12.3 ± 0.39	5.924 ± 0.022	6.7 ± 0.89	3.16 ± 0.12	6.326 ± 0.06	6.29 ± 0.41	12.2 ± 0.23
MYRIGELAKMAEVTPDTIRYYEKQQMMEHEVRTEGGFRLYTESDLQRLKFIRHARQLGFSLESIRELLSIRIDPEHHTCQESKGIVQERLQEVEARIAELQSMQRSLQRLNDACCGTAHSSVYCSILEALEQGASGVKSGC [P0ACS5]	2.16	0.555 ± 0.043	0.866	1	–	–	4.46 ± 0.81	–	–	–	0.748 ± 0.26	–
MSLISMHGAWLSFSDAPLLDNAELHIEDNERVCLVGRNGAGKSTLMKILNREQGLDDGRIIYEQDLIVARLQQDPPRNVEGSVYDFVAEGIEEQAEYLKRYHDISRLVMNDPSEKNLNELAKVQEQLDHHNLWQLENRINEVLAQLGLDPNVALSSLSGGWLRKAALGRALVSNPRVLLLDEPTNHLDIETIDWLEGFLKTFNGTIIFISHDRSFIRNMATRIVDLDRGKLVTYPGNYDQYLLEKEEALRVEELQNAEFDRKLAQEEVWIRQGIKARRTRNEGRVRALKAMRRERGERREVMGTAKMQVEEASRSGKIVFEMEDVCYQVNGKQLVKDFSAQVLRGDKIALIGPNGCGKTTLLKLMLGQLQADSGRIHVGTKLEVAYFDQHRAELDPDKTVMDNLAEGKQEVMVNGKPRHVLGYLQDFLFHPKRAMTPVRALSGGERNRLLLARLFLKPSNLLILDEPTNDLDVETLELLEELIDSYQGTVLLVSHDRQFVDNTVTECWIFEGGGKIGRYVGGYHDARGQQEQYVALKQPAVKKTEEAAAAKAETVKRSSSKLSYKLQRELEQLPQLLEDLEAKLEALQTQVADASFFSQPHEQTQKVLADMAAAEQELEQAFERWEYLEALKNGG	4.8 ± 0.17	4.38 ± 0.62	5.82 ± 0.35	10.4 ± 1.5	5.42 ± 0.33	9.51 ± 0.35	4.79 ± 0.63	5.1 ± 0.79	3.41 ± 0.18	4.73 ± 0.16	4.37 ± 0.087	7.15 ± 0.13
MEQVVIVDAIRTPMGRSKGGAFRNVRAEDLSAHLMRSLLARNPALEAAALDDIYWGCVQQTLEQGFNIARNAALLAEVPHSVPAVTVNRLCGSSMQALHDAARMIMTGDAQACLVGGVEHMGHVPMSHGVDFHPGLSRNVAKAAGMMGLTAEMLARMHGISREMQDAFAARSHARAWAATQSAAFKNEIIPTGGHDADGVLKQFNYDEVIRPETTVEALATLRPAFDPVNGMVTAGTSSALSDGAAAMLVMSESRAHELGLKPRARVRSMAVVGCDPSIMGYGPVPASKLALKKAGLSASDIGVFEMNEAFAAQILPCIKDLGLIEQIDEKINLNGGAIALGHPLGCSGARISTTLLNLMERKDVQFGLATMCIGLGQGIATVFERV	2.52 ± 0.046	3.22 ± 0.013	5 ± 0.57	9.67 ± 0.97	5.97 ± 0.56	11.5 ± 0.95	4.38 ± 0.27	3.05 ± 0.081	3.36 ± 0.57	2.922 ± 0.023	3.18 ± 0.39	4.39 ± 0.12
MSDNDELQQIAHLRREYTKGGLRRRDLPADPLTLFERWLSQACEAKLADPTAMVVATVDEHGQPYQRIVLLKHYDEKGMVFYTNLGSRKAHQIENNPRVSLLFPWHTLERQVMVIGKAERLSTLEVMKYFHSRPRDSQIGAWVSKQSSRISARGILESKFLELKQKFQQGEVPLPSFWGGFRVSLEQIEFWQGGEHRLHDRFLYQRENDAWKIDRLAP [P0AFI7]	4.66 ± 0.076	4.39 ± 0.58	5.55 ± 0.32	10.8 ± 1.7	5.65 ± 0.12	11.2 ± 0.29	4.89 ± 0.34	4.63 ± 0.17	3.53 ± 0.6	4.2 ± 0.047	4.14 ± 0.077	8.66 ± 0.44
